± gives the uncertainty stated by the source.
Assay: protein stability index of a GFP-peptide fusion (yeast GPS) (PSI 1-4); higher = more stable; sorted into four equal gates, so the index is relative within each strain
Outline: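 Plasmids isolated from each sorting gate were PCR-amplified and Illumina-sequenced, and barcodes assigned the reads to strains. The gates, four of equal size, were set by GFP/Cherry fluorescence ratio on mid-log cultures in leucine-free medium. These cultures were yeast carrying a pooled library of tiled 17-residue yeast protein peptides fused downstream of GFP on a plasmid that also expresses Cherry. The protein stability index is the sum of every gate's read frequency times its gate number.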

| Sequence | protein stability index (doa10∆) | protein stability index (pdr5∆) | protein stability index (san1∆) | protein stability index (ubr1∆) |
| --- | --- | --- | --- | --- |
| TRYMFQRDFRKHGAVHL [RPL21A] | 2.42 ± 0.062 | 2.27 ± 0.069 | 2.33 ± 0.084 | 2.44 ± 0.092 |
| TSASNTSMNGVHNTVAA [SNF5] | 2.66 ± 0.042 | 2.86 ± 0.04 | 2.9 ± 0.051 | 2.9 ± 0.047 |
| TSEEQTKFLAKNGVIPE [SWP82] | 3.71 ± 0.26 | 3.6 ± 0.23 | – | 3.3 ± 0.098 |
| TSFGQPQSAPNQMGMGT [YOR098C/NUP1] | 2.81 ± 0.094 | 2.83 ± 0.18 | 2.9 ± 0.15 | 2.41 ± 0.17 |
| TSKTVSNQFKRSLATAV [COR1] | 2.47 ± 0.11 | 2.32 ± 0.075 | 2.34 ± 0.092 | 1.8 ± 0.056 |
| TSLKKIKDEIDDPFTKI [SWI1] | 3.41 ± 0.17 | 3.24 ± 0.22 | – | 3.49 ± 0.13 |
| TSTKPSFSFGAPESMKS [YOR098C/NUP1] | 2.97 ± 0.053 | 3.07 ± 0.062 | 3.15 ± 0.043 | 3.1 ± 0.046 |
| TSTVNRLNTVTRVHQLM [MCD1] | 3.22 ± 0.12 | 1.49 ± 0.06 | 2.21 ± 0.2 | 2.57 ± 0.094 |
| TSVENEGPVANLKDYEL [REC8] | 3.38 ± 0.11 | 3.41 ± 0.12 | 3.03 ± 0.13 | 3.16 ± 0.076 |
| TSVQEKELMLQSKKLIE [YIL149C/MLP2] | 2.65 ± 0.089 | 2.94 ± 0.096 | 2.84 ± 0.084 | 2.91 ± 0.063 |
| TTDNNNSGNSNSNSNQQ [RPT1] | 3.3 ± 0.12 | 2.93 ± 0.14 | 2.59 ± 0.23 | 3.36 ± 0.2 |
| TTILSFSSPAALMKTLI [NUT1] | 1.65 ± 0.047 | 1.75 ± 0.05 | 2.09 ± 0.1 | 1.78 ± 0.054 |
| TTPEKPEETPLEELAET [FAS2] | 3.28 ± 0.076 | 3.09 ± 0.074 | 3.28 ± 0.051 | 3.5 ± 0.051 |
| TTQIDLFRIFSMSEEFK [BRR2] | 2.4 ± 0.14 | 3.12 ± 0.1 | 2.49 ± 0.23 | 3.12 ± 0.073 |
| TTSVDVMLKGIVTALLE [SRP54] | 1.27 ± 0.047 | 1.22 ± 0.056 | 1.18 ± 0.1 | 1.11 ± 0.04 |
| TTVFFSRQKSGLFDSFT [YML031W/NDC1] | 1.49 ± 0.042 | 1.45 ± 0.055 | 1.54 ± 0.11 | 1.55 ± 0.048 |
| TTVQVAEEAIVNAMRVL [PRE4] | 2.91 ± 0.12 | 2.72 ± 0.091 | 1.88 ± 0.27 | 2.54 ± 0.09 |
| TVAVLPPNWKYESATAS [RPS13] | 1.63 ± 0.036 | 2.06 ± 0.037 | 2.07 ± 0.055 | 1.97 ± 0.028 |
| TVEPVYQMHIKTSKDIA [FAS1] | 1.29 ± 0.044 | 1.33 ± 0.063 | 1.31 ± 0.081 | 1.35 ± 0.065 |
| TVINEQQREAVRQLYKG [RPL35A] | 3.44 ± 0.094 | 3.43 ± 0.14 | 3.13 ± 0.12 | 3.31 ± 0.079 |
| TVKRGAAGIWTCSCCKK [RPL43A] | 1.68 ± 0.085 | 1.74 ± 0.058 | 1.74 ± 0.11 | 1.94 ± 0.062 |
| TVLETLLSDVNQNQRNV [SMC3] | 3.23 ± 0.13 | 2.94 ± 0.057 | 3.01 ± 0.085 | 3.02 ± 0.082 |
| TVQSERAFQKQPHIFNN [RPS11A] | 2.69 ± 0.051 | 2.58 ± 0.043 | 2.53 ± 0.045 | 2.79 ± 0.034 |
| TVSRAYGGSRCANCVKE [RPL34A] | 2.4 ± 0.071 | 2.96 ± 0.068 | 2.43 ± 0.1 | 2.19 ± 0.043 |
| TVWSANFEYDLSEYDAI [YOR098C/NUP1] | 2.86 ± 0.27 | 3.31 ± 0.19 | 2.98 ± 0.27 | 3.06 ± 0.1 |
| TVYISSIALLKMLKHGR [RPN11] | 2.25 ± 0.085 | 2.09 ± 0.079 | 2.65 ± 0.054 | 2.79 ± 0.066 |
| TVYSSEQYIQELDKRED [SMC3] | 2.76 ± 0.18 | 3.26 ± 0.24 | – | 3.47 ± 0.25 |

| Sequence | protein stability index (doa10∆) | protein stability index (pdr5∆) | protein stability index (san1∆) | protein stability index (ubr1∆) |
| --- | --- | --- | --- | --- |
| TWRTQLAASEIGISIVG [ECM29] | 1.72 ± 0.065 | 2 ± 0.083 | 1.68 ± 0.071 | 1.88 ± 0.037 |
| TYDENDDFFKELAKEAK [ESC2] | 3.01 ± 0.11 | 2.83 ± 0.08 | 2.65 ± 0.073 | 3.08 ± 0.075 |
| TYEMRIHKRYIDLEAPV [RPS20] | 2.17 ± 0.16 | 2.71 ± 0.15 | – | 2.51 ± 0.28 |
| TYKYPSLKGVDPKFRRN [RPL29] | 3.03 ± 0.11 | 2.88 ± 0.25 | 2.97 ± 0.12 | 3.12 ± 0.09 |
| TYSFIDNDRFNVVGKLI [YML103C/NUP188] | 2.34 ± 0.058 | 2.27 ± 0.06 | 2.07 ± 0.072 | 2.16 ± 0.04 |
| VAALALLFAINSYQPSP [SMC1] | 1.62 ± 0.059 | 1.55 ± 0.073 | 1.89 ± 0.11 | 2.42 ± 0.055 |
| VAFLDNDLGKFIPNKQL [RPN7] | 3.34 ± 0.17 | 3.02 ± 0.17 | 2.83 ± 0.26 | 2.88 ± 0.095 |
| VAIAETDSWESFFVSVR [FAS1] | – | 3.05 ± 0.3 | – | – |
| VALPPGSNYNPYFPGGS [CYT1] | 2.32 ± 0.058 | 2.81 ± 0.064 | 2.65 ± 0.067 | 2.64 ± 0.036 |
| VCDLALRFGEGASGEER [PUP2] | 2.75 ± 0.2 | 3.4 ± 0.2 | – | 3.1 ± 0.21 |
| VCKKADVDLHKRAGELT [RPS18A] | 3.23 ± 0.15 | 3.31 ± 0.12 | 3.39 ± 0.2 | 3.46 ± 0.11 |
| VDASPNDVTRRTVKNIL [CSL4] | 3.19 ± 0.085 | 3.18 ± 0.085 | 3.1 ± 0.078 | 3.3 ± 0.063 |
| VDDDQDYVVAPGVNREI [GRR1] | 3.17 ± 0.13 | 3.13 ± 0.15 | 3.31 ± 0.2 | 3.29 ± 0.2 |
| VDENETVLESLGRLNKL [LIN1] | 2.79 ± 0.075 | 3.03 ± 0.073 | 2.88 ± 0.069 | 3.03 ± 0.053 |
| VDFQNDLKDILEKVVPL [BRR2] | 3.17 ± 0.18 | 2.88 ± 0.13 | 2.9 ± 0.15 | 2.69 ± 0.066 |
| VDIDDPDMMVDSFTMPN [SNF2] | 3.27 ± 0.11 | 2.86 ± 0.094 | 2.71 ± 0.085 | 3.15 ± 0.089 |
| VDLWSVGCIFAELIGLQ [SSN3] | 3.18 ± 0.097 | 3.16 ± 0.13 | 3.35 ± 0.036 | 3.17 ± 0.12 |
| VDNTTEQSNSRKRTRSE [YCG1] | 3.27 ± 0.18 | – | 2.83 ± 0.1 | – |
| VDRLKIGGSLARIALRH [RPS25A] | 2.66 ± 0.13 | 2.1 ± 0.07 | 2.01 ± 0.073 | 1.8 ± 0.096 |
| VDVLGTHSQTGTQQSNM [SIR4] | 3.12 ± 0.18 | 2.91 ± 0.17 | – | 3.2 ± 0.067 |
| VDVLVISSHSHPVSLIS [RRP42] | 1.5 ± 0.046 | 1.53 ± 0.048 | 1.57 ± 0.062 | 1.67 ± 0.03 |
| VEESGEHVILGNGELYM [SNU114] | 3.31 ± 0.08 | 3.12 ± 0.066 | 3.3 ± 0.051 | 3.13 ± 0.057 |
| VEEVIKLVRDSFTSATE [PRE7] | 3.06 ± 0.078 | 3.33 ± 0.066 | 3.18 ± 0.052 | 3 ± 0.061 |
| VEHLLRDVRDQAAGGLS [RPN8] | 2.7 ± 0.13 | 1.99 ± 0.17 | 2.81 ± 0.17 | 1.07 ± 0.12 |
| VEIAYHKCDELITLFNK [RPO31] | 3.16 ± 0.19 | 3.01 ± 0.087 | 2.99 ± 0.078 | 2.96 ± 0.1 |
| VEINSSESDLDEDKNFP [ESC2] | 2.99 ± 0.063 | 2.66 ± 0.056 | 3.25 ± 0.052 | 3.16 ± 0.057 |

From the supplement of paper PMC9732359
